Results published in US20080220446A1, “Method for Detecting and/or Removing Protein and/or Peptide Comprising a Cross-Beta Structure From an Aqueous Solution Comprising a Protein” (priority 2005, published 2008).

T1: factor XII (Homo sapiens, UniProt P00748)
T1 construct: purified human factor XII from plasma (Calbiochem); purchased Calbiochem; host or cells: human plasma
T1 sequence (P00748 20-615): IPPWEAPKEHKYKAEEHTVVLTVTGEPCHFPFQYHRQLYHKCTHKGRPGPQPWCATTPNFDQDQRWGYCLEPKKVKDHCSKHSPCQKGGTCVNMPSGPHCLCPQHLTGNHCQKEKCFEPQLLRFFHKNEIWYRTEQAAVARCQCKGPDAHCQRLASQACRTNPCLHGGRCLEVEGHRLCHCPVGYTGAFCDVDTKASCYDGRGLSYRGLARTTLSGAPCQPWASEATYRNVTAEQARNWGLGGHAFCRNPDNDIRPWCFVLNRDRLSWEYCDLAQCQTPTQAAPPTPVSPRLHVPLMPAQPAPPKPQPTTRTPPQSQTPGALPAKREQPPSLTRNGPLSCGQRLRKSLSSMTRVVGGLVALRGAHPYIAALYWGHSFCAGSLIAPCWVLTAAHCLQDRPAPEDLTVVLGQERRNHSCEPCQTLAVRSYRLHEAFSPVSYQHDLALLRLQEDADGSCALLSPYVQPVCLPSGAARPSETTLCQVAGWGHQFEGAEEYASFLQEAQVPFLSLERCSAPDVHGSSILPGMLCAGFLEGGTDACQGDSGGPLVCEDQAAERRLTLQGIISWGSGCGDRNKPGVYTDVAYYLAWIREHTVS


Columns and labels:
tPA [1] = target: T2, tPA (Homo sapiens, UniProt P00750); test: Plasminogen-activation assay (tPA activation, S-2251); type: biochemical; details: β2GPI preparations, 100 μg ml^−1
T2 sequence (P00750 36-562): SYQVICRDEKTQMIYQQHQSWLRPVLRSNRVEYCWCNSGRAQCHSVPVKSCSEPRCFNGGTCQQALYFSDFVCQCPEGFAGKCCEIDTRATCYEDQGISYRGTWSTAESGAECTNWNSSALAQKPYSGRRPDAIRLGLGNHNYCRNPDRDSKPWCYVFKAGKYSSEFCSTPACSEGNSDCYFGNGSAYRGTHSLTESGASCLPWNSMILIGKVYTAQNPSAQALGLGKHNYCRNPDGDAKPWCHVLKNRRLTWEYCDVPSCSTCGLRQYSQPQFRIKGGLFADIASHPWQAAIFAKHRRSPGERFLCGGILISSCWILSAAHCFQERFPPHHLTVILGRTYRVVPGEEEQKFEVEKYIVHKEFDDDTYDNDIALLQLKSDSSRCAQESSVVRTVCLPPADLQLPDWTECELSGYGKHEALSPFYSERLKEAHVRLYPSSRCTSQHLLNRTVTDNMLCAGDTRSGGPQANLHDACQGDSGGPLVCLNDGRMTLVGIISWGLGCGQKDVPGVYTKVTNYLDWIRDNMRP
Protocol: Plasmin (Pls) activity was assayed as described^16. Peptides and proteins that were tested for their stimulatory ability were regularly used at 100 μg ml^−1. […] Chromogenic substrate S-2251 (Chromogenix, Instrumentation Laboratory SpA, Milano, Italy) was used to measure Pls activity. Conversion of zymogen factor XII (#233490, Calbiochem, EMD Biosciences, Inc., San Diego, Calif.) to proteolytically active factor XII (factor XIIa) was assayed by measurement of the conversion of chromogenic substrate Chromozym-PK (Roche Diagnostics, Almere, The Netherlands) by kallikrein. Chromozym-PK was used at a concentration of 0.3 mM. […] The conversion of Chromozym-PK was recorded kinetically at 37° C. for at least 60 minutes. […]
Formulated protein therapeutics were obtained from the local hospital pharmacy and were used as supplied by the manufacturers. […] Enhancement in fluorescence of ThT and Congo red was measured with all formulated protein therapeutics. […]
(§1) To prepare structurally altered ovalbumin (OVA) with amyloid cross-β structures, purified OVA (Sigma, A-7641, lot 071k7094) was heated to 85° C. […] Native OVA (nOVA) and heat-denatured OVA (dOVA) were tested in the ThT fluorescence assay and in the Plg-activation assay. In the fluorescence assay and in the Plg-activation assay, 25 and 100 μg ml^−1 nOVA and dOVA were tested, respectively. […]

[2] = Thioflavin T fluorescence of protein solutions; type: physicochemical; details: after exposure to CL or DXS500k
Protocol: Fluorescence of ThT—protein/peptide adducts was measured as follows. […] Fluorescence was measured at 485 nm upon excitation at 435 nm. Background signals from buffer, buffer with ThT and protein/peptide solution without ThT were subtracted from corresponding measurements with protein solution incubated with ThT. Regularly, fluorescence of Aβ was used as a positive control, and fluorescence of FP10, a non-amyloid fibrin fragment^16, was used as a negative control. Fluorescence was measured in triplicate on a Hitachi F-4500 fluorescence spectrophotometer (Ltd., Tokyo, Japan).
Formulated protein therapeutics were obtained from the local hospital pharmacy and were used as supplied by the manufacturers. […] Lyophilized therapeutics were dissolved according to the manufacturers recommendations. GH, zinc-insulin, Cealb and gelatin were stored at −20, 4, room temperature, 37 and 65° C. Other protein therapeutics were only kept at 4° C., and assayed for the presence of cross-β structure at shown time points. Enhancement in fluorescence of ThT and Congo red was measured with all formulated protein therapeutics. […]
ThT fluorescence of β2GPI was measured as follows. […] In the ThT fluorescence assay, fluorescence of β2GPI in buffer, of CL or DXS500k in buffer, of buffer and ThT alone, and of β2GPI-CL adducts and β2GPI-DXS500k adducts, with or without ThT, was recorded as described above (section ThT fluorescence). In addition, TEM images were recorded with CL, β2GPI from human plasma, with or without CL, and with recombinant β2GPI, as described^5.
as §1
MSA (#126674, Calbiochem) was dissolved in 8 M urea, 100 mM Tris-HCl pH 8.2, at 10 mg ml^−1 final concentration. […] The presence of aggregates or fibrils was analyzed using TEM. […]

tPA [3] = target: T2, tPA; test: ELISA, binding of β2GPI to immobilized tPA
Protocol: (§2) Binding of purified human factor XII from plasma (Calbiochem) or of purified recombinant human tPA to β2GPI purified from human plasma, or to recombinant human β2GPI was tested in an ELISA. Ten μg of factor XII or tPA in PBS was coated onto wells of a Costar 2595 ELISA plate (Cambridge, USA) and incubated with concentration series of the two β2GPI preparations. Binding of β2GPI was assessed with monoclonal antibody 2B2^22.

factor XII = target: T1, factor XII; test: ELISA, binding of β2GPI to immobilized factor XII
Protocol: as §2

tPA [4] = target: T2, tPA; test: tPA/plasminogen activation assay; type: biochemical; details: β2gpi exposed to cardiolipin or alkylated, 100 μg/ml
Protocol: β2-GPI was reduced and alkylated as follows. Sixhundredforty μl of β2-GPI stock was mixed with 640 μl of 8 M Urea (cooled solution) in 0.1 M Tris pH-8.2. The solution was degassed with N2 gas for approximately 6 minutes. From a 1 M DTT stock 12.8 μl was added to the solution, mixed and incubated for 3 hours at room temperature. A 1 M Iodoacetamide (Sigma; I-6125) was prepared, of which 25.6 μl was added to the β2-GPI reaction mixture. The solution was subsequently dialysed against PBS. […] Signals obtained with alkyl-β2gpi are compared with those obtained with native β2gpi starting material and with positive control acid/heat denatured amyloid-like misfolded γ-globulins.
Exiqon Peptide Immobilizer plates were blocked for 1 hour with PBS, 1% Tween20 and rinsed twice with distilled water. The conversion of the chromogenic substrate S-2251 (Chromogenix, Italy) by plasmin was kinetically measured at 37° C. on a Spectramax340 microplate reader at a wavelength of 405 nm. […] Denatured γ-globulins (100 μg/ml) with amyloid-like structure was used as reference and positive control. Lyophilized γ-globulins (Sigma, Mo., USA) were dissolved in a 1(:)1 volume ratio of 1,1,1,3,3,3-hexafluoro-2-propanol and trifluoro-acetic acid and subsequently dried under air. […]
Protein therapeutics were obtained from the local hospital pharmacy and analyzed within the expiry limits as stated by the manufacturers.

binding to tPA (tPA [3]; listed as β2GPI purified from fresh human plasma)	binding to tPA (tPA [3]; listed as β2GPI purified from plasma)	binding to factor XII (factor XII)	ability to activate tPA/plasminogen (tPA [4])	Molecule	stimulation of tPA-mediated conversion of Plg to Pls (tPA [1])	ThT fluorescence signal [2]
not	does not bind	not	–	β2GPI purified from fresh plasma: β2-glycoprotein I purified from fresh human plasma (protein) GRTCPKPDDLPFSTVVPLKTFYEPGEEITYSCKPGYVSRGGMRKFICPLTGLWPINTLKCTPRVCPFAGILENGAVRYTTFEYPNTISFSCNTGFYLNGADSAKCTEEGKWSPELPVCAPIICPPPSIPTFATLRVYKPSAGNNSLYRDTAVFECLPQHAMFGNDTITCTTHGNWTKLPECREVKCPFPSRPDNGFVNYPAKPTLYYKDKATFGCHDGYSLDGPEEIECTKLGNWSAMPSCKASCKVPVKKATVVYQGERVKIQEKFKNGMLHGDKVSFFCKNKEKKCSYTEDAQCIDGTIEVPKCFKEHSSLAFWKTDASDVKPC	not	increased ThT fluorescence signal
–	–	–	accelerated	CL-β2gpi: β2gpi exposed to cardiolipin (protein) GRTCPKPDDLPFSTVVPLKTFYEPGEEITYSCKPGYVSRGGMRKFICPLTGLWPINTLKCTPRVCPFAGILENGAVRYTTFEYPNTISFSCNTGFYLNGADSAKCTEEGKWSPELPVCAPIICPPPSIPTFATLRVYKPSAGNNSLYRDTAVFECLPQHAMFGNDTITCTTHGNWTKLPECREVKCPFPSRPDNGFVNYPAKPTLYYKDKATFGCHDGYSLDGPEEIECTKLGNWSAMPSCKASCKVPVKKATVVYQGERVKIQEKFKNGMLHGDKVSFFCKNKEKKCSYTEDAQCIDGTIEVPKCFKEHSSLAFWKTDASDVKPC	–	–
